# Measurements as given in patent publication US20040147006, “Peptides that bind to DNA and inhibit DNA replication, and methods of use” (published 2004).
# Where no end group is shown, it is not given here. [ ]: non-standard residue; d: D form. pT = C[C@@H](OP(=O)(O)O)[C@H](N)C(=O)O
# T1: T-ag peptide 2(9), unphosphorylated (Simian virus 40)
# T1 chain: SQHSTPPKK
# T2: T-ag peptide 1(9), phospho-Thr124 (Simian virus 40)
# T2 chain: SQHS[pT]PPKK
# T3: T-ag peptide T-2(17), unphosphorylated (Simian virus 40, UniProt P03070)
# T3 chain: ATADSQHSTPPKKKRKV
# T4: E1 peptide E1-P2(25), BP-E1, unphosphorylated (Bovine papillomavirus, UniProt P03116 SEQ:1-25)
# T4 chain: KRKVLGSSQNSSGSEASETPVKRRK
# B1: 64-bp SV40 core origin (dsDNA)
# DNA 1: TAATTTTTTTTATTTATGCAGAGGCCGAGGCCGCCTCGGCCTCTGAGCTATTCCAGAAGTAGTG
# DNA 2: CACTACTTCTGGAATAGCTCAGAGGCCGAGGCGGCCTCGGCCTCTGCATAAATAAAAAAAATTA
# Columns and labels:
# [1] = target: T1, T-ag peptide 2(9), unphosphorylated; experiment: filter; background at 0.5-2 mM; EMSA at 2 mM negative; conditions: protein: synthetic; tags: synthetic peptide; label: 5'-32P
# [2] = target: T2, T-ag peptide 1(9), phospho-Thr124; experiment: as above; conditions: protein: synthetic; tags: synthetic peptide, phosphorylated Thr124; label: 5'-32P
# [3] = target: SV40 large T antigen (full length) (Simian virus 40, UniProt P03070 P03070:1-708); experiment: EMSA; hexamers and double hexamers; 7 mM MgCl2, AMP-PNP, 37 C, glutaraldehyde; conditions: label: 5'-32P
# [4] = target: T3, T-ag peptide T-2(17), unphosphorylated; experiment: filter; significant at 0.5 mM, saturated at 1-2 mM; higher affinity than 13-mer; conditions: protein: synthetic; tags: synthetic peptide; label: 5'-32P
# [5] = target: T4, E1 peptide E1-P2(25), BP-E1, …; experiment: filter; binds at 0.25 mM, better than T-2(17); EMSA works without glutaraldehyde; conditions: protein: synthetic; tags: synthetic peptide; label: 5'-32P
binder,measurement,setting,value
B1,binding result,[1],no binding
same,binding result,[2],no binding
same,binding result,[3],binds
same,binding result,[4],binds
same,binding result,[5],binds
